Patent publication US20110008375A1, “Uses of Myostatin Antagonists” (AMGEN INC., priority 2005, published 2011)
Changes are numbered by the printed parent chain.

T1: myostatin (Homo sapiens, UniProt O14793)
T1 construct: To produce mature myostatin, the pooled promyostatin was enzymatically cleaved between the propeptide and mature myostatin C terminal; made in house; host or cells: E. coli K-12 strain 2596 (ATCC # 202174)
T1 sequence (O14793 267-375): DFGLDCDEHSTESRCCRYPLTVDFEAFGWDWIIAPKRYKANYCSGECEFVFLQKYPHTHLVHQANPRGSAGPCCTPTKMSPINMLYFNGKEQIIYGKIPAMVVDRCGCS

B1: ActRIIB/Fc: soluble receptor fusion protein actRIIB/Fc (R&D Systems), recombinant human activin receptor IIB/Fc chimera (protein)
chain: SGRGEAETRECIYYNANWELERTNQSGLERCEGEQDKRLHCYASWRNSSGTIELVKKGCWLDDFNCYDRQECVATEENPQVYFCCCEGNFCNERFTHLPEAGGPEVTYEPPPTAPT
modifications: left off: a dimerising Fc or GST
B2: 2x mTN8-19-7: affinity matured 2× peptibody (two peptides in tandem), TN8-19 family, human Fc (protein)
chain: GGGGGAQLADHGQCIRWPWMCPPEGWELEGSGSATGGSGSTASSGSGSATGLADHGQCIRWPWMCPPEGWELE
modifications: Peptibody
B3: 2x mTN8-19-33: affinity matured 2× peptibody of the TN8-19 family, human Fc (protein)
chain: GGGGGAQPESQGHCTRWPWMCPPQGWGLEGSGSATGGSGSTASSGSGSATGPESQGHCTRWPWMCPPQGWGLE
modifications: Peptibody
B4: 2×mTN8-19-22: affinity matured 2× peptibody of the TN8-19 family, human Fc (protein)
chain: B3 chain with P8T, E9F, P52T, E53F
B5: 2xmTN8-19-7 (protein)
chain: B2 chain
modifications: Peptibody
B6: 2xmTN8-19-22 (protein)
chain: B3 chain with P8T, E9F, P52T, E53F
modifications: Peptibody
B7: 2xmTN8-19-21 (protein)
chain: B3 chain with P8S, S10Y, H13L, G27K, P52S, S54Y, H57L, G71K
modifications: Peptibody

target: T1, myostatin; assay: BIAcore affinity analysis on immobilized myostatin; format: binding; details: Biacore assay; Table III
Protocol: An affinity analysis of each candidate myostatin peptibody was performed on a BIAcore®3000 (Biacore, Inc., Piscataway, N.J.), apparatus using sensor chip CM5, and 0.005 percent P20 surfactant (Biacore, Inc.) as running buffer.
Direct binding assays were used to screen and rank the peptibodies in order of their ability to bind to immobilized myostatin. Binding assays were carried by injection of two concentrations (40 and 400 nM) of each candidate myostatin-binding peptibody to the immobilized myostatin surface at a flow rate of 50 μl/min for 3 minutes. After a dissociation time of 3 minutes, the surface was regenerated. Binding curves were compared qualitatively for binding signal intensity, as well as for dissociation rates. Peptibody binding kinetic parameters including ka (association rate constant), kd (dissociation rate constant) and KD (dissociation equilibrium constant) were determined using the BIA evaluation 3.1 computer program (Biacore, Inc.). The lower the dissociation equilibrium constants (expressed in nM), the greater the affinity of the peptibody for myostatin.

Kd | Molecule
~7 nM | B1

system: C57B1/6 mice; assay: Gripping strength in normal C57B1/6 mice; format: in vivo, mouse; details: 30 days s.c. 5 mg/kg per week, measured day 18 of recovery
Protocol: The animals were allowed to recover without any further injections. Gripping strength was measured on day 18 of the recovery period. Griping strength was measured using a Columbia Instruments meter, model 1027 dsm (Columbus, Ohio).

Molecule | increase in gripping strength compared with control-treated mice
B2 | 15%
B3 | 14%

system: not listed separately; assay: In vivo pharmacokinetics in CD1 nu/nu mice; set-up: species or system mouse; details: peptibodies without LE sequences, 10 mg/kg and 5 mg/kg
Protocol: In vivo pharmacokinetics experiments were performed using representative peptibodies without the LE sequences. 10 mg/kg and 5 mg/kg dosages were administered to CD1 nu/nu mice and the following parameters determined. Cmax (ug/mL), area under the curve (AUC) (ug-hr/mL), and half-life (hr).

Molecule | half-life
B2 | about 106 hours
B4 | about 85.2 hours

system: CD1 nu/nu mice; assay: In vivo anabolic activity in CD1 nu/nu mouse model; details: CD1 nu/nu male mice; 1 and 3 mg/kg twice weekly, 35 days; 2× vs 1× peptibody or control
From the text: The CD1 nu/nu mouse model (Charles River Laboratories, Massachusettes) was used to determine the in vivo efficacy of the peptibodies of the present invention which included the human Fc region (huFc). This model responded to the inhibitors of the present invention with a rapid anabolic response which was associated with increased dry muscle mass and an increase in myofibrillar proteins but was not associated with accumulation in body water content.
A group of 10 8 week old CD1 nu/nu mice were treated twice weekly or once weekly with dosages of 1 mg/kg, 3 mg/kg and 10 mg/kg (subcutaneous injection). The control group of 10 8 week old CD1 nu/nu mice received a twice weekly (subcutaneous) injection of huFc (vehicle) at 10 mg/kg. The animals were weighed every other day and lean body mass determined by NMR on day 0 and day 13. The animals are then sacrificed at day 14 and the size of the gastrocnemius muscle determined.
In another example, the 1×mTN8-19-32 peptibody was administered to CD1 nu/nu mice in a biweekly injection of 1 mg/kg, 3 mg/kg, 10 mg/kg, and 30 mg/kg compared with the huFc control (vehicle).
CD1 nu/nu male mice (10 animals per group) were treated with twice weekly injections of 1 mg/kg and 3 mg/kg of 1×mTN8-19-7 and 2×mTN8-19-7 for 35 days, while the control group (10 animals) received twice weekly injections of huFc (3 mg/kg).

Molecule | body weight gain (FIG. 5) | lean carcass weight at necropsy (FIG. 5)
B2 | greater body weight gain | greater

target: T1, myostatin; assay: C2C12 pMARE-luc cell based myostatin activity assay; details: not given
From the text: A myostatin-responsive reporter cell line was generated by transfection of C2C12 myoblast cells (ATCC No: CRL-1772) with a pMARE-luc construct. The pMARE-luc construct was made by cloning twelve repeats of the CAGA sequence, representing the myostatin/activin response elements (Dennler et al. EMBO 17: 3091-3100 (1998)) into a pLuc-MCS reporter vector (Stratagene cat #219087) upstream of the TATA box. The myoblast C2C12 cells naturally express myostatin/activin receptors on its cell surface. When myostatin binds the cell receptors, the Smad pathway is activated, and phosphorylated Smad binds to the response element (Macias-Silva et al. Cell 87:1215 (1996)), resulting in the expression of the lucerase gene. Luciferase activity is then measured using a commercial luciferase reporter assay kit (cat #E4550, Promega, Madison, Wis.) according to manufacturer's protocol. A stable line of C2C12 cells that had been transfected with pMARE-luc (C2C12/pMARE clone #44) was used to measure myostatin activity according to the following procedure.
Equal numbers of the reporter cells (C2C12/pMARE clone #44) were plated into 96 well cultures. A first round screening using two dilutions of peptibodies was performed with the myostatin concentration fixed at 4 nM. Recombinant mature myostatin was pre-incubated for 2 hours at room temperature with peptibodies at 40 nM and 400 nM respectively. The reporter cell culture was treated with the myostatin with or without peptibodies for six hours. Myostatin activity was measured by determining the luciferase activity in the treated cultures. This assay was used to initially identify peptibody hits that inhibited the myostatin signaling activity in the reporter assay. Subsequently, a nine point titration curve was generated with the myostatin concentration fixed at 4 nM. The myostatin was preincubated with each of the following nine concentrations of peptibodies: […], 0.4 nM, 4 nM, 20 nM, 40 nM, 200 nM, 400 nM, 2 uM and 4 uM for two hours before adding the mixture to the reporter cell culture. The IC50 values were for a number of exemplary peptibodies are provided in Tables III and for affinity matured peptibodies, in Table VIII.

inhibition of myostatin activity in cell-based assay | Molecule
inhibit myostatin activity | L2: peptibody: peptide MEMLDSLFELLKDMVPISKA fused to human IgG1 Fc

same assay, conditions: affinity matured peptibodies; a range of values is given

IC50 | Molecule
6.58 nM | mTN8-19-23 (PGAHDHCTRWPWMCPPQSRY)
5.03 to 5.07 nM | mTN8-19-34 (IPAHGHCTRWPWMCPPQRWR)
4.84 to 4.92 nM | mTN8-19-27 (ADTQGHCTRWPWMCPPQHWF)
16.7 nM | mTN8-19-4 (MITQGQCTRWPWMCPPQPSG)
32.8 nM | mL15-7 (QVDSLQQVLLWLEHKLALGPQV)
4.07 to 6.56 nM | mTN8-19-14 (EFTQWHCTRWPWMCPPQRSQ)
28.7 nM | mTN8-19-11 (IYPHDQCTRWPWMCPPQPYP)
6.36 nM | mTN8-19-29 (TLVQGHCTRWPWMCPPQRWV)
354 nM | mL15-9 (QIEMLESLLDLLRDMVPMSNAF)
123 nM | mL20-2 (TQRDMSMLDGLLEVLDQLRQQR)
7.51 to 34.4 nM | mTN8-19-2 (YPEQGLCTRWPWMCPPQTLA)
160 nM | mL20-4 (MQHDMSMLYGLVELLESLGHQI)
4.39 nM | mTN8-19-28 (SGPQGHCTRWPWMCAPQGWF)
158 nM | mL20-3 (TSRDMSLLWELLEELDRLGHQR)
4.65 nM | mTN8-19-16 (YQTQGLCTRWPWMCPPQSQR)
3.5 to 7.74 nM | mTN8-19-5 (AGAQEHCTRWPWMCAPNDWI)
980 nM | mTN8-19-12 (SYWQGQCTRWPWMCPPQWRG)
5.25 to 7.4 nM | mTN8-19-10 (VVTQGHCTLWPWMCPPQRWR)
17.3 nM | mTN8-19-6 (GVNQGQCTRWRWMCPPNGWE)
20 nM | mTN8-19-13 (MWQQGHCTRWPWMCPPQGWG)
18.8 to 23 nM | mTN8-19-9 (TQTHAQCTRWPWMCPPQWEG)
1.67 to 2.93 nM | mTN8-19-24 (VAEEWHCRRWPWMCPPQDWR)
0.857 to 2.65 nM | B5
0.994 to 1.22 nM | B6
0.828 to 1.43 nM | B7

same assay, conditions: pMARE luc cell-based assay; Table III

IC50 | Molecule
~11 nM | Linear-20: peptibody: peptide YREMSMLEGLLDVLERLQHY fused to human IgG1 Fc
~30 nM | TN12-34: peptibody: peptide AHWCEQGPWRYGNICMAY fused to human IgG1 Fc
